In data set [1] the target is T1, recombinant human interferon beta-1a (human, UniProt P01574 22-187).
T1 construct: human interferon beta (interferon beta-1a), UniProt P01574; Pharmaceutical interferon beta-1a; also called IFN-β; Interferon-β; source: bought: Merck (Rebif), produced in CHO-K1 cells
Description: SPR; IFN-β immobilised on ProteOn GLH chip by amine coupling; Ca^2+-loaded S100 as analyte (0.25–5 µM S100A1, 0.5–5 µM S100A4/A6, 5 µM other S100); 25 °C; 10 mM HEPES, 150 mM NaCl, 0.01% TWEEN 20, pH 7.4, 1 mM CaCl2; heterogeneous ligand model. As to conditions: both partners purified. On the technique in general: In SPR one partner is held on a chip, and binding of the other changes the refractive index at the surface.

Data set [2] deals with the molecule itself. Put plainly: SPR; estimate from the SPR data for 0.5 µM S100 analyte on immobilised IFN-β, 1 mM CaCl2; dimer to monomers, Ca^2+-loaded S100.

For orientation: Kd means the free concentration of one partner at which half of the binding sites on the other are occupied at equilibrium, for simple one-to-one binding.

B1: recombinant human S100A8 (natural protein, UniProt P05109 1-93, looked up)
chain: MLTELEKALNSIIDVYHKYSLIKGNFHAVYRDDLKKLLETECPQYIRKKGADVWFKELDINTDGAVNFQEFLILVIKMGVAAHKKSHEESHKE
notes: human S100A8, Swiss-Prot P05109, gene cloned into pHUE between SacII and HindIII; Made as a ubiquitin-S100 chimera and cut with Usp2; also called S10A8; source: E. coli BL21(DE3)-RIL, purified (IMAC, Usp2 cleavage, anion exchange, gel filtration)
In the case of B1, the Kd in data set [1] was ≥ 10 µM.

B2: recombinant human S100A13 (natural protein, UniProt Q99584 1-98, looked up)
chain: MAAEPLTELEESIETVVTTFFTFARQEGRKDSLSVNEFKELVTQQLPHLLKDVGSLDEKMKSLDVNQDSELKFNEYWRLIGELAKEIRKKKDLKIRKK
notes: human S100A13, Swiss-Prot Q99584, gene cloned into pET-11a between NdeI and BamHI; also called S10AD
For the molecule B2, the Kd in data set [1] is ≥ 10 µM.

B3: recombinant human S100A14 (natural protein, UniProt Q9HCY8 1-104, looked up)
chain: MGQCRSANAEDAQEFSDVERAIETLIKNFHQYSVEGGKETLTPSELRDLVTQQLPHLMPSNCGLEEKIANLGSCNDSKLEFRSFWELIGEAAKSVKLERPVRGH
notes: human S100A14, Swiss-Prot Q9HCY8, gene cloned into pHUE between SacII and HindIII; Made as a ubiquitin-S100 chimera and cut with Usp2; also called S10AE; source: E. coli BL21(DE3)-RIL, purified (IMAC, Usp2 cleavage, second IMAC, gel filtration)
In the case of B3, in data set [1], the Kd is ≥ 10 µM.

B4: recombinant human S100A7 (natural protein, UniProt P31151 1-101, looked up)
chain: MSNTQAERSIIGMIDMFHKYTRRDDKIEKPSLLTMMKENFPNFLSACDKKGTNYLADVFEKKDKNEDKKIDFSEFLSLLGDIATDYHKQSHGAAPCSGGSQ
notes: human S100A7, Swiss-Prot P31151, gene cloned into pHUE between SacII and HindIII; Made as a ubiquitin-S100 chimera and cut with Usp2; also called S10A7; source: E. coli BL21(DE3)-RIL, purified (IMAC, Usp2 cleavage, anion exchange, gel filtration)
With B4, the Kd in data set [1] is ≥ 10 µM.

B5: recombinant human S100A15 (S100A7A) (natural protein, UniProt Q86SG5 1-101, looked up)
chain: MSNTQAERSIIGMIDMFHKYTGRDGKIEKPSLLTMMKENFPNFLSACDKKGIHYLATVFEKKDKNEDKKIDFSEFLSLLGDIAADYHKQSHGAAPCSGGSQ
notes: human S100A15 (S100A7A), Swiss-Prot Q86SG5, gene cloned into pHUE between SacII and HindIII; Made as a ubiquitin-S100 chimera and cut with Usp2; also called A1A7A; source: E. coli BL21(DE3)-RIL, purified (IMAC, Usp2 cleavage, anion exchange, gel filtration)
B5: the Kd in data set [1] was ≥ 10 µM.

B6: recombinant human S100A4 (natural protein)
chain: not shown
notes: human S100A4, Swiss-Prot P26447, gene cloned into pHUE between SacII and HindIII; Made as a ubiquitin-S100 chimera and cut with Usp2; also called S10A4; source: E. coli BL21 (DE3) with pLacIRARE, purified (IMAC, Usp2 cleavage, anion exchange, gel filtration)
Take B6: in data set [2], the dissociation constant (Kd) was ≤ 0.5 µM.

B7: recombinant human S100A9 (natural protein, UniProt P06702 1-114, looked up)
chain: MTCKMSQLERNIETIINTFHQYSVKLGHPDTLNQGEFKELVRKDLQNFLKKENKNEKVIEHIMEDLDTNADKQLSFEEFIMLMARLTWASHEKMHEGDEGPGHHHKPGLGEGTP
notes: human S100A9, Swiss-Prot P06702, gene cloned into pET-11a between NdeI and BamHI; also called S10A9; source: E. coli BL21(DE3)pLysS, purified (ammonium sulfate, anion exchange, cation exchange, gel filtration)
On to B7, for which, in data set [1], the Kd is ≥ 10 µM.

B8: recombinant human S100A11 (natural protein, UniProt P31949 1-105, looked up)
chain: MAKISSPTETERCIESLIAVFQKYAGKDGYNYTLSKTEFLSFMNTELAAFTKNQKDPGVLDRMMKKLDTNSDGQLDFSEFLNLIGGLAMACHDSFLKAVPSQKRT
notes: human S100A11, Swiss-Prot P31949, gene cloned into pHUE between SacII and HindIII; Made as a ubiquitin-S100 chimera and cut with Usp2; also called S10AB; source: E. coli BL21 (DE3) with pLacIRARE, purified (IMAC, Usp2 cleavage, anion exchange, gel filtration)
Regarding B8, the dissociation constant (Kd) in data set [1] was ≥ 10 µM.

B9: recombinant human S100A1 (natural protein)
chain: GSELETAMETLINVFHAHSGKEGDKYKLSKKELKELLQTELSGFLDAQKDVDAVDKVMKELDENGDGEVDFQEYVVLVAALTVACNNFFWENS
notes: human S100A1, Swiss-Prot P23297, gene cloned into pHUE between SacII and HindIII; Made as a ubiquitin-S100 chimera and cut with Usp2; also called S10A1; source: E. coli BL21 (DE3) with pLacIRARE, purified (IMAC, Usp2 cleavage, anion exchange, gel filtration)
With B9, in data set [2], the Kd was ≤ 0.5 µM.

B10: recombinant human S100A12 (natural protein, UniProt P80511 1-92, looked up)
chain: MTKLEEHLEGIVNIFHQYSVRKGHFDTLSKGELKQLLTKELANTIKNIKDKAVIDEIFQGLDANQDEQVDFQEFISLVAIALKAAHYHTHKE
notes: human S100A12, Swiss-Prot P80511, gene cloned into pHUE between SacII and HindIII; Made as a ubiquitin-S100 chimera and cut with Usp2; also called S10AC; source: E. coli BL21 (DE3) with pLacIRARE, purified (IMAC, Usp2 cleavage, anion exchange, gel filtration)
B10: the equilibrium dissociation constant (Kd) in data set [1] was ≥ 10 µM.

Values taken from article PMC7764042, “Interferon Beta Activity Is Modulated via Binding of Specific S100 Proteins” (International Journal of Molecular Sciences, 2020).
